± gives the uncertainty stated by the source.

The nature of the data set: abundance fitness (aPCA) (normalised: wild type 0, dead -1); higher = more abundant; growth selection in yeast, the domain comes from the species named. The note with it: Homo sapiens.
“DnaJ homolog subfamily B member 1 I48Q, P25685” had an abundance fitness of -0.422 ± 0.12.

In turn, “DnaJ homolog subfamily B member 1 I48R, P25685” registered an abundance fitness of -0.74 ± 0.075.

“DnaJ homolog subfamily B member 1 I48S, P25685” had an abundance fitness of -0.387 ± 0.074.

“DnaJ homolog subfamily B member 1 I48V, P25685” showed an abundance fitness of -0.267 ± 0.089.

“DnaJ homolog subfamily B member 1 I48W, P25685” had an abundance fitness of -1 ± 0.11.

Consider “DnaJ homolog subfamily B member 1 I48Y, P25685”, for which the abundance fitness is -0.386 ± 0.2.

On to “DnaJ homolog subfamily B member 1 I63A, P25685”, for which the abundance fitness is 0.237 ± 0.097.

As to “DnaJ homolog subfamily B member 1 I63C, P25685”, the abundance fitness is -0.083 ± 0.1.

Substance “DnaJ homolog subfamily B member 1 I63D, P25685” gave an abundance fitness of -0.014 ± 0.21.

Consider “DnaJ homolog subfamily B member 1 I63E, P25685”, for which the abundance fitness worked out at 0.092 ± 0.1.

Take “DnaJ homolog subfamily B member 1 I63F, P25685”: the abundance fitness was -0.212 ± 0.26.

Consider “DnaJ homolog subfamily B member 1 I63G, P25685”, for which the abundance fitness was -0.003 ± 0.089.

Substance “DnaJ homolog subfamily B member 1 I63H, P25685” showed an abundance fitness of -0.311 ± 0.33.

Take “DnaJ homolog subfamily B member 1 I63K, P25685”: the abundance fitness is -0.019 ± 0.13.

The substance “DnaJ homolog subfamily B member 1 I63L, P25685” returned an abundance fitness of -0.097 ± 0.082.

The substance “DnaJ homolog subfamily B member 1 I63M, P25685” displayed an abundance fitness of -0.087 ± 0.085.

Turning to “DnaJ homolog subfamily B member 1 I63N, P25685”, the abundance fitness is -0.012 ± 0.11.

“DnaJ homolog subfamily B member 1 I63P, P25685” had an abundance fitness of 0.08 ± 0.11.

On to “DnaJ homolog subfamily B member 1 I63Q, P25685”, for which the abundance fitness came to 0.098 ± 0.074.

The substance “DnaJ homolog subfamily B member 1 I63R, P25685” yielded an abundance fitness of 0.044 ± 0.074.

On to “DnaJ homolog subfamily B member 1 I63S, P25685”, for which the abundance fitness stood at 0.108 ± 0.068.

For the substance “DnaJ homolog subfamily B member 1 I63T, P25685”, the abundance fitness stood at 0.588 ± 0.081.

Regarding “DnaJ homolog subfamily B member 1 I63V, P25685”, the abundance fitness came out at 0.016 ± 0.065.

In turn, “DnaJ homolog subfamily B member 1 I63W, P25685” gave an abundance fitness of -0.277 ± 0.12.

Consider “DnaJ homolog subfamily B member 1 I63Y, P25685”, for which the abundance fitness is -0.236 ± 0.12.

In turn, “DnaJ homolog subfamily B member 1 K21A, P25685” registered an abundance fitness of -0.071 ± 0.072.

As for “DnaJ homolog subfamily B member 1 K21C, P25685”, the abundance fitness is -0.089 ± 0.071.

As to “DnaJ homolog subfamily B member 1 K21D, P25685”, the abundance fitness was -0.25 ± 0.12.

Substance “DnaJ homolog subfamily B member 1 K21E, P25685” yielded an abundance fitness of -0.182 ± 0.1.

For the substance “DnaJ homolog subfamily B member 1 K21H, P25685”, the abundance fitness was 0.006 ± 0.085.

In turn, “DnaJ homolog subfamily B member 1 K21L, P25685” yielded an abundance fitness of -0.029 ± 0.051.

Substance “DnaJ homolog subfamily B member 1 K21P, P25685” returned an abundance fitness of -0.822 ± 0.08.

As to “DnaJ homolog subfamily B member 1 K21Q, P25685”, the abundance fitness stood at 0.122 ± 0.051.

“DnaJ homolog subfamily B member 1 K21R, P25685” returned an abundance fitness of -0.126 ± 0.059.

Turning to “DnaJ homolog subfamily B member 1 K21S, P25685”, the abundance fitness is -0.097 ± 0.051.

Turning to “DnaJ homolog subfamily B member 1 K21T, P25685”, the abundance fitness was -0.053 ± 0.064.

(Values after the Human Domainome abundance scans (Beltran et al. 2025).)
